The values that follow come from patent US20150056222A1 (Regeneron, published 2015).

Numbering of substitutions follows the chain as printed. Like-named read-outs stand apart in the source and are kept apart here.

In test [1] the target is T1, hPRLR.mmh (soluble monomeric human PRLR) (human).
T1 construct: soluble monomeric construct
T1 chain: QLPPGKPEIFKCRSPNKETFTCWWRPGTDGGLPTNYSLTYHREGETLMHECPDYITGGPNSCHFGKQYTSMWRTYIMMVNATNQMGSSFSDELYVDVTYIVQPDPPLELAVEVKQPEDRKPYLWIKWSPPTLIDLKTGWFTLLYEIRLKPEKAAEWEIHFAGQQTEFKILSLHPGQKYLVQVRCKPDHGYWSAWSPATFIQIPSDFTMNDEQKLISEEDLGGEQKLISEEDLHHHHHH
As to the kind of experiment: SPR, 37C, mAb capture. As to the method: (§1) Measurements were conducted on a T200 Biacore instrument. Kinetic association (kₐ) and dissociation (kd) rate constants were determined by processing and fitting the data to a 1:1 binding model using Scrubber 2.0 curve fitting software. Binding dissociation equilibrium constants (KD) and dissociative half-lives (t_{1/2}) were calculated from the kinetic rate constants as: KD (M)=kd/kₐ; and […].
(Surface plasmon resonance follows binding to a sensor surface in real time, without labels.)

The target in test [2] is T2, hPRLR.mFc (soluble dimeric human PRLR) (human).
T2 construct: dimeric construct
T2 chain: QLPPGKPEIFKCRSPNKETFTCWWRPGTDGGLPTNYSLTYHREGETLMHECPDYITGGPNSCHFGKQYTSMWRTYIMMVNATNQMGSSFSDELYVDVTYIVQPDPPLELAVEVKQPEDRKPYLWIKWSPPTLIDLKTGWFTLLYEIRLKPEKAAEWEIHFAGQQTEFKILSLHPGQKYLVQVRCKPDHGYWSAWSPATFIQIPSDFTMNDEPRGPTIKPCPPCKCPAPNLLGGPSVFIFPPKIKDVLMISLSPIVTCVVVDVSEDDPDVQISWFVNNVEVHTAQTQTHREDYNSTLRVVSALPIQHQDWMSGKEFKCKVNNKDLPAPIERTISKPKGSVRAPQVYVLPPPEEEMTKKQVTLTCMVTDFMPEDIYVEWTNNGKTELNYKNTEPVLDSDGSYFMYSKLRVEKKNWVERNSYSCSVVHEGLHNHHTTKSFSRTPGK
As to the kind of experiment: SPR, 37C, mAb capture. As to the method:
as §1

The target of test [3] is T3, mfPRLR.mmh (soluble monomeric macaca fascicularis PRLR) (macaca fascicularis).
T3 construct: soluble monomeric construct; also called macaca fascicularis (mf) PRLR.mmh
T3 chain: T1 chain with I76V, A110T, I125M, I158T, T207I
As to the kind of experiment: SPR, 37C, mAb capture. The protocol:
as §1

Test [4] deals with T4, human prolactin receptor (PRLR) on cells (human, UniProt P16471 25-622).
T4 sequence: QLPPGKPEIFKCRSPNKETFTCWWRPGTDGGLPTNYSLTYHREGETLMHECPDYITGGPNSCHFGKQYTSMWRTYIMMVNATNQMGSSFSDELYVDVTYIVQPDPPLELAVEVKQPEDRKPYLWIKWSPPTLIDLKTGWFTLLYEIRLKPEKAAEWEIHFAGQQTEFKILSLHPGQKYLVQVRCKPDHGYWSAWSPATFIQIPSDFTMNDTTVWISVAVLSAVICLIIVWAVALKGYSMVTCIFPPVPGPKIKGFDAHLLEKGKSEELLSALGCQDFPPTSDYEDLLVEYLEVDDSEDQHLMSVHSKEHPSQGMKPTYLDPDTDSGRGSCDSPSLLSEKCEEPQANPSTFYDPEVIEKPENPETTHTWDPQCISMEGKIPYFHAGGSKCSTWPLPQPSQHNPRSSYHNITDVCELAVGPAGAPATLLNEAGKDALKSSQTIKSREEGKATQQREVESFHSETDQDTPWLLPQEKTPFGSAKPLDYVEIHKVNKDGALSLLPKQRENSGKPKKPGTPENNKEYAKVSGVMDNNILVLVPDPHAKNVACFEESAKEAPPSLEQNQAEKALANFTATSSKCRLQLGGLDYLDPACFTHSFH
As to the kind of experiment: cell-based or functional assay.

The target in test [5] is T4, human prolactin receptor (PRLR) on cells. As to the kind of experiment: FACS, HEK293/hPRLR cells. Also: test concentration or dose not given here. On the technique in general: Flow cytometry measures light scatter and fluorescence of single cells or particles in a stream.
The target of test [6] is T5, mouse PRLR on HEK293 cells (mouse, UniProt Q08501 20-608).
T5 construct: whole, on cells; also called mPRLR; HEK293/mPRLR
T5 sequence (looked up): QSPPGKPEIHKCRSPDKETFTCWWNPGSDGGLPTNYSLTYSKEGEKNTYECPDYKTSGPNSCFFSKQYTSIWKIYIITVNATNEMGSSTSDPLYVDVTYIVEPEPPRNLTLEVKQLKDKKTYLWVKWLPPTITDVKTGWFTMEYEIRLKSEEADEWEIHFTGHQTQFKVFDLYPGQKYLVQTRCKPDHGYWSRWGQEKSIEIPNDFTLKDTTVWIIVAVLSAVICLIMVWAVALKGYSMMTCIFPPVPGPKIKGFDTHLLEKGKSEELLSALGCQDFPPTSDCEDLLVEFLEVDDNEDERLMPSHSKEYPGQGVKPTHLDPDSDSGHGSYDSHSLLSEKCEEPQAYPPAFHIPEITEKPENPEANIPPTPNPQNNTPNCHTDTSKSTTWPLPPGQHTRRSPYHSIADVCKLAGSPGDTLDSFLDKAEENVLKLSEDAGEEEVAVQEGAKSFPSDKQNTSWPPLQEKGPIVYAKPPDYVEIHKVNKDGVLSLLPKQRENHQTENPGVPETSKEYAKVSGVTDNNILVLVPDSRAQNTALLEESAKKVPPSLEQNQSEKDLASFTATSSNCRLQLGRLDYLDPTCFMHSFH
As to the kind of experiment: FACS, HEK293/mPRLR cells. Also: test concentration or dose not given here.

The target in test [7] is T6, monkey (macaca fascicularis) PRLR on HEK293 cells (macaca fascicularis, UniProt A0A2K5WXK1 25-619).
T6 construct: also called mfPRLR; HEK293/mfPRLR
T6 sequence: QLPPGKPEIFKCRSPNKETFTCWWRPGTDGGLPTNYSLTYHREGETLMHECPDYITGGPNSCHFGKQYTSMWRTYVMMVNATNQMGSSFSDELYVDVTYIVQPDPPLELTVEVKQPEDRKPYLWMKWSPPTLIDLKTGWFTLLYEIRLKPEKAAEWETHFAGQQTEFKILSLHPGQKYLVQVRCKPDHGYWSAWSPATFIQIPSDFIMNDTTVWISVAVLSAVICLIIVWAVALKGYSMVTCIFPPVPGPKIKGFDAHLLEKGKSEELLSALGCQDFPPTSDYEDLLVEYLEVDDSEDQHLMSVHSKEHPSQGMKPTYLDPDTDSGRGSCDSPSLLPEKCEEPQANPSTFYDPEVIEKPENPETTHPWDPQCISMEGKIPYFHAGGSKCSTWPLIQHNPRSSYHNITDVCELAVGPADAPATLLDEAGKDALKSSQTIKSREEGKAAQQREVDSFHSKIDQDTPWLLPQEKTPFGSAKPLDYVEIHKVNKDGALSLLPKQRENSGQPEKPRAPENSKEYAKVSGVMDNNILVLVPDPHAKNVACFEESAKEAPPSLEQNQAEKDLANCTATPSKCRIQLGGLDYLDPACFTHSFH
As to the kind of experiment: FACS, HEK293/mfPRLR cells. Also: test concentration or dose not given here.

Test [8] concerns the target T4, human prolactin receptor (PRLR) on cells. As to the kind of experiment: FACS, T47D cells (native PRLR). Also: test concentration or dose not given here.
The target of test [9] is T7, human prolactin receptor (PRLR), cell surface-expressed (human, UniProt P16471 25-622).
T7 sequence: T4 sequence
As to the kind of experiment: cell-based or functional assay.

The target of the next test is T8, IL-6R (human, UniProt P08887 20-468).
T8 construct: whole, on cells
T8 sequence (looked up): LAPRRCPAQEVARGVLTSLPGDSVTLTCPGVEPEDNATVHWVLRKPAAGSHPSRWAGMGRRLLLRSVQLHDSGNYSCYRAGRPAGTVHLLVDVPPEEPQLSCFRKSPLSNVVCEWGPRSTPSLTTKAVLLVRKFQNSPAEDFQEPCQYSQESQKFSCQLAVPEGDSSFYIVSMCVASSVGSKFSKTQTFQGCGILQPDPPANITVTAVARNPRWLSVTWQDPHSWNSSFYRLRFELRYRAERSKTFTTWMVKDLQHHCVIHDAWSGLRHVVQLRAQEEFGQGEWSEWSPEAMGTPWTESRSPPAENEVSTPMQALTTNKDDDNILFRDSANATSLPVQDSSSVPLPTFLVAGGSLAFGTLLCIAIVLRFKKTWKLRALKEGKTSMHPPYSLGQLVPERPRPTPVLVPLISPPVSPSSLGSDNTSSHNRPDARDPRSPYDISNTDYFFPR
As to the kind of experiment: FACS on KG-1 cells (endogenous IL-6R), PE anti-human secondary, MFI above isotype control.

Test [10] has as its target T7, human prolactin receptor (PRLR), cell …. As to the kind of experiment: cell-based or functional assay. This is another data set of the same source.
The target is the same in test [11]. As to the kind of experiment: cell-based or functional assay. This is another data set of the same source.
Test [12] has the same target. As to the kind of experiment: cell-based or functional assay. This is another data set of the same source.
For test [13] the target is unchanged. As to the kind of experiment: cell-based or functional assay. This is another data set of the same source.

B1: H1H6966N (antibody, human IgG1, V domains shown)
VH: QVQLVQSGAEVQKPGASVKVSCKVSGYTLTALSIHWVRQAPGKGLEWMGNFDPGDGETIHAQKFQGRVTMTGDTSTDTAYMELSSLRSEDTAVYYCVGVTFDYWGQGTLVTVSS
VL: EIVMTQSPATLSVSPGERATLSCRASQSVASNLAWYQQKPGQAPRLLLYGASTRATGIPARFSGSGSGTEFTLTISSLQSEDFALYYCQHYNNWPLTFGGGTKVEIK
notes: also called H2M6966N
Regarding B1, the T½ in test [1] turned out to be 12 min; in test [2], 91.3 min; in [3] it was 9.6 min. Besides, the “% Internalization relative to Control I (alexa488 intensity in intracellular vesicles at 37 C, T47D cells)” value in test [4] was determined as 137%. Also, the “FACS Cell Binding (Fold Above Background)” value in test [5] was 29 fold above background; in test [6], 1 fold above background; in test [7], 18 fold above background; in [8], 31 fold above background.

B2: H1H6782P-SMCC-DM1 (antibody, human IgG1, V domains shown)
VH: EVQLVESGGGLVQPGRSLRLSCAASGFTFDDYAMHWVRQAPGKGLEWVSGIIWNSGHIGYGDSVKGRFTISRDNAKKSLYLQMNSLRAEDTALYYCARDSGRYQSYFDYWGQGTLVTVSS
VL: DIQMTQSPSTLSASVGDRVTITCRASHIISSWLAWYQQKPGKAPKVLIFKASSLESGVPSRFSGSGSGTEFTLTISSLQPDDFATYYCQQYNTYSRTFGQGTKVEIK
modifications: DM1 conjugated through an SMCC linker; attachment residues not stated
On to B2, for which the “IC50, cell viability, T47D cells” value in test [9] amounted to 1 nM.

B3: H1H6960N (antibody, human IgG1, V domains shown)
VH: EVQLVESGGGLVKPGGSLRLSCAASGITFSSYSMNWVRQAPGKGLEWVSSISTRSSLIHYADSVKGRFTISRDNAKNSLYLQMNSLRDEDTAVYYCARWDAAAAFDYWGQGTLVIVSS
VL: DIQLTQSPSFLSASVGDRVTITCWASQGISSYLAWYQQKPGKAPKLLIYVASTLQSGVPSRFSGSGSGTEFTLTISSLQPEDFATYFCQQLNSYPLTFGGGTKVEIK
notes: also called H2M6960N
As for B3, the figures for the T½ in test [1], in test [2] and in [3] were 5.8 min, 78.7 min and 9 min, respectively. The “% Internalization relative to Control I (alexa488 intensity in intracellular vesicles at 37 C, T47D cells)” value in test [4] is 120%. In addition, the “FACS Cell Binding (Fold Above Background)” value stood at 29 fold above background in test [5], 1 fold above background in [6], 23 fold above background in [7] and 33 fold above background in [8].

B4: VV6A9-5 (antibody, V domains shown)
VH: EVQLVESGGGLVQPGRSLRLSCAASGFTFDDYALHWVRQAPGKGLEWVSGVSWNGGRIGYADSVKGRFTISRDNAKNSLFLQMNSLRVEDTALYYCAKGRDAFDIWGQGTLVTVSS
VL: DIQMTQSPSSVSASVGDRVTITCRASQGISSWLAWYQQKPGKAPKLLIYAASSLQSGVPSRFSGSGSGTDFTLTISSLQPEDFATYYCQHAYSFPYTFGQGTKLEIK
Regarding B4, the “MFI fold over background” value with IL-6R was determined as 7 fold over background.

B5: H1H6953N-SMCC-DM1 (antibody, human IgG1, V domains shown)
VH: EVQLLESGGGLVQPGGTLRLSCAASGFTFSAYAMSWVRQAPGKGLEWVSSINVRAGDTYYADSVKGRFTISRDNSKNTLFLLMNSLRAEDTAAYYCAKARYSSNWGFDFWGQGTLVTVSS
VL: DIVMTQSPDSLTVSLGARTTINCQSSQTILHSSNNHNYLAWYQQKPGLPPKLLIYWSSTRESGVPDRFSGSGSGTDFTLTISSLQAEDVAIYYCQQYSNTPYTFGQGTKLEIN
modifications: DM1 conjugated through an SMCC linker; attachment residues not stated
Regarding B5, the “IC50, cell viability, 293/PRLR cells” value in test [10] was determined as 0.43 nM. Moreover, the “IC50, cell viability, PC3/PRLR cells” value in [11] is 0.68 nM. Besides, in test [12], the “IC50, cell viability, MCF7 cells” value is 82 nM; the “IC50, cell viability, T47D cells” value worked out at 1.3 nM; the “IC50, cell viability, T47D/ErbB2 cells” value amounted to 2.4 nM. Besides, in [13], the “IC50, cell viability, MCF7/PRLR cells” value was found to be 0.33 nM; the “IC50, cell viability, MCF/PRLR + ErbB2 cells” value was 0.33 nM; the “IC50, cell viability, NCI-N87/PRLR cells” value is 2.9 nM.
